According to patent EP1433851A2:

Biological target: FITC-labeled CD4 (UniProt P01730)
Experiment: size exclusion HPLC (Biosil 250); CD4-FITC alone eluted at 2.67 minutes

**Q.** “US4 gp120, purified from CHO cell culture supernatant” was tested. Which retention time of the complex did it give?
**A.** 2.17 min

**Q.** With “oligomeric gp140 US4 (o-gp140 US4), purified from CHO cell culture supernatant” as the substance, how does the retention time of the complex read?
**A.** 1.9 min
